From PMC5858146

How the values were obtained:
[1] = target: Porcine gastric mucin (PGM) (porcine); assay: ITC; ITC-200 at 37 °C, pH 4.5; PGM solution (40 μM) in the 200 μL cell, KTN or KOS solution (1% w/v) in the syringe
[2] = target: Porcine gastric mucin (PGM) (porcine); assay: ITC; ITC-200 at 37 °C, pH 7.4; PGM solution (40 μM) in the 200 μL cell, KTN or KOS solution (1% w/v) in the syringe
[3] = target: Porcine gastric mucin (PGM) (porcine); assay: as above; remark: listed apart in the source
[4] = target: Porcine gastric mucin (PGM) (porcine); assay: as above; remark: listed apart in the source

| Substance | Ka [1] [M⁻¹] | dH [1] [kcal/mol] | stoichiometry N [1] | Ka [2] [M⁻¹] | dH [2] [kcal/mol] | stoichiometry N [2] | Ka [3] [M⁻¹] | dH [4] [kcal/mol] |
| --- | --- | --- | --- | --- | --- | --- | --- | --- |
| kerateine (reduced keratin, KTN) | 398000 | -2.41 | 1.23 | 10700 | -3.47 | 1.5 |  |  |
| keratose (oxidized keratin, KOS) | 15500 | -4.25 | 1.15 | 4140 | -61.1 | 1.27 | 41400 | 61.1 |
